Test results taken from patent publication US20150024066A1, “METHODS FOR […] TREATING EXCESS WEIGHT USING OXYNTOMODULIN” (IMPERIAL INNOVATIONS, published 2015).

Assays:
GLP-1 receptor [1] = target: T1, GLP-1 receptor (rat, UniProt P32301); assay: competition of [^125I]GLP-1 binding to rat hypothalamic membranes; reference GLP-1
GLP-1 receptor [2] = target: T1, GLP-1 receptor; assay: competition of [^125I]GLP-1 binding to rat hypothalamic membranes, unlabeled peptide varied
Experimental: Membranes were incubated at room temperature for 90 min. Bound and free radioactivity were separated by centrifugation (2 min, 4° C.). Pelleted membranes were washed with assay buffer (0.5 ml, ice-cold), and the membranes were centrifuged as described above. The supernatant was removed, and the radioactivity in the pellet was counted using a γ-counter. […] All curves were constructed with points in triplicate. IC₅₀ values were calculated using the Prism 3 program (GraphPad Software, Inc., San Diego, Calif.).

- affinity relative to GLP-1 (GLP-1 receptor [1]): ~2 orders of magnitude weaker
- IC50 (GLP-1 receptor [2]): 8.2 nM
Binder: HSQGTFTSDYSKYLDSRRAQDFVQWLMNTKRNKNNIA [oxyntomodulin (OXM)]
